Molecular target: N-His6-fortilin (human) (UniProt P13693)
Assay: SPR; Biacore 3000, 25 °C, HBS-EPS (0.01 M HEPES, 0.5 M NaCl, 3 mM EDTA, 0.005% Tween 20, pH 7.4), 20 μL/min; forms of rh-fortilin amine-coupled to a CM5 chip; rh-TGF-β1 injected (0 to 200 nM; 100 nM for scouting)

Sequence of N-His6-fortilin (human) (P13693 whole entry): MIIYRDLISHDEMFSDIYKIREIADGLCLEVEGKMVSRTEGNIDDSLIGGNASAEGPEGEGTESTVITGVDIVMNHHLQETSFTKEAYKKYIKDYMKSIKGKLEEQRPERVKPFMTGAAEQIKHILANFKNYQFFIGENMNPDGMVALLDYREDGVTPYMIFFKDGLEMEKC

- Kd: 210 nM
Substance: recombinant human TGF-β1 produced in-house (ligand)

From article PMC8866402
